B1: KB-VWF-013bv_ABP (VHH)
chain: QVQLQSGGGLVQAGDSLRLSCAASGRTFIRYAMAWFRQAPGKEREFVAAIPQSGGRSYYADSVKGRFTISRDNAKNTVYLQMNSLKPEDTAVYSCAATSTYYGRSAYSSHSGGYDYWGQGTQVTVSSGGGSGGGSGGGSGGGSQVQLVQSGGGLVQAGDSLRLSCAASGRTFIRYAMAWFRQAPGKEREFVAAIPQSGGRSYYADSVKGRFTISRDNAKNTVYLQMNSLKPEDTAVYSCAATSTYYGRSAYSSHSGGYDYWGQGTQVTVSSGRGGGSLTPRGVRLGGGSQGLIGDIALPRWGALWGDSV
notes: A tag is not described; also called KB-VWF-013_ABP
B2: KB-AT-002/003_ABP (VHH)
chain: QVQLQESGGGLVQAGGSLRLSCAASGRTFNNNGMGWFRQAPGKEREFVAAISWSGGSTYYADSVKGRYIMSRDNAKNTVYLQMNSLKPEDTAVYYCAARTRYNSGLFSRNYDYWGQGTQVTVSSGGGSGGGSGGGSGGGSQVQLQESGGGLVQPGGSLRLSCAASALTFSSRAWAWYRQAPGKQRELVASITGGGTTNYADSVKGRFTISRDNAKNTVYLQMNSLKPEDTAVHYCNGYRYTYAWGQGTQVTVSSGRGGGSGGGSGGGSGGGSQGLIGDIALPRWGALWGDSV
notes: It was detected with anti-His tag antibodies, so the protein tested carried a His tag; also called KB-AT-002/003_AlbBP
B3: KB-AT-002/003 (VHH)
chain: QVQLQESGGGLVQAGGSLRLSCAASGRTFNNNGMGWFRQAPGKEREFVAAISWSGGSTYYADSVKGRYIMSRDNAKNTVYLQMNSLKPEDTAVYYCAARTRYNSGLFSRNYDYWGQGTQVTVSSGGGSGGGSGGGSGGGSQVQLQESGGGLVQPGGSLRLSCAASALTFSSRAWAWYRQAPGKQRELVASITGGGTTNYADSVKGRFTISRDNAKNTVYLQMNSLKPEDTAVHYCNGYRYTYAWGQGTQVTVSS
notes: A tag is not described, but a His tag is likely, since the ELISA detects with anti-His antibodies

How the values were obtained:
[1] = biological target: T1, biotinylated human albumin (human, UniProt P02768 25-609, biotinylated (sites not given)); test: biolayer interferometry (Octet-QK), bt-albumin on streptavidin sensors, sdAb at 125 or 250 microgram/ml
T1 construct: Captured on streptavidin biosensors; also called human bt-albumin; bt-albumin
Method: (§1) Example 2: Binding of KB-AT-002/003_ABP to biotinylated human albumin in a biolayer-interferometry analysis assay. We tested the binding of KB-AT-002/003_ABP to biotinylated human albumin using Octet-QK equipment (FIG. 2). To this end, biotinylated albumin (bt-albumin) was diluted in phosphate-buffered saline with 0.1% Tween-20 (PBS-T) to a concentration of 200 microgram/ml for absorption to streptavidin-high binding capacity sensors (Fortébio, Menlo Park, Calif., USA). Sensors were rehydrated in 0.2 ml PBS-T for 15 min. Sensors were then incubated with 0.1 ml bt-albumin solution for 600 sec. Sensors were subsequently allowed to reach stable baseline levels via incubation with PBS-T for 300 sec. bt-Albumin coated sensors were then transferred to wells containing KB-AT-002/003_ABP (125 or 250 microgram/ml in PBS-T) and incubated for 300 sec in order to visualize association of KB-AT-002/003_ABP to immobilized bt-albumin. Following this association phase, sensors were transferred to wells containing PBS-T, and incubated for 900 sec, allowing dissociation of the KB-AT-002/003_ABP/bt-albumin complex.
(§2) Example 3: Binding of KB-VWF-013bv_ABP to biotinylated human or murine albumin in a biolayer-interferometry analysis assay. We tested the binding of KB-VWF-013bv_ABP (SEQ ID NO: 6) to biotinylated human or murine albumin using Octet-QK equipment (FIG. 3). To this end, biotinylated albumin (bt-albumin) was diluted in phosphate-buffered saline with 0.1% Tween-20 (PBS-T) to a concentration of 200 microgram/ml for absorption to streptavidin-high binding capacity sensors (Fortébio, Menlo Park, Calif., USA). Sensors were rehydrated in 0.2 ml PBS-T for 15 min. Sensors were then incubated with 0.1 ml bt-albumin solution for 600 sec. Sensors were subsequently allowed to reach stable baseline levels via incubation with PBS-T for 300 sec. bt-Albumin coated sensors were then transferred to wells containing KB-VWF-013bv_ABP (125 or 250 microgram/ml in PBS-T) and incubated for 900 sec in order to visualize association of KB-VWF-013bv_ABP to immobilized bt-albumin.

[2] = biological target: T2, biotinylated murine albumin (murine, UniProt P07724 25-608, biotinylated (sites not given)); test: as above
T2 construct: Captured on streptavidin biosensors; also called murine bt-albumin; bt-albumin
Method: as §1, §2

[3] = biological target: T3, human antithrombin (human, UniProt P01008 33-464); test: biolayer interferometry (Octet-QK), human antithrombin coupled to amine-reactive sensors, sdAb in solution (100 microgram/ml by paragraph 127)
T3 construct: also called AT
T3 sequence (P01008 33-464 limits assumed): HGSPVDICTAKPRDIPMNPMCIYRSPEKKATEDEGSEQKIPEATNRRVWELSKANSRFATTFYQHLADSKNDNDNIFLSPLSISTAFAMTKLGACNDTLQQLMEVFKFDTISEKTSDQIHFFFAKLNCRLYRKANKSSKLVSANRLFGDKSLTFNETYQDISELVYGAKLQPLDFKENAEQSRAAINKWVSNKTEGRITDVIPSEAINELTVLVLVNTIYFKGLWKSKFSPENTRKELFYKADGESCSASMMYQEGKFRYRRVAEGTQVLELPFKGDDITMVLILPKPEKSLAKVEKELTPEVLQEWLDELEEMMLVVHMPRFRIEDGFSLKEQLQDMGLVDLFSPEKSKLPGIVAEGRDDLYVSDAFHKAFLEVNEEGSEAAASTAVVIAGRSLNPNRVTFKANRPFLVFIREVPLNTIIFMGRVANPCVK
Method: Example 4: Binding of murine albumin to a complex of antithrombin and KB-AT-002/003_ABP. We tested the binding of albumin to KB-AT-002/003_ABP while the sdAb was bound to antithrombin via biolayer-interferometry analysis using Octet-QK equipment (FIG. 4). To this end, human antithrombin was diluted in 0.1 M Mes (pH 5.0) to a concentration of 50 microgram/ml for coupling to EDC/NHS-activated amine-reactive biosensors (Fortébio, Menlo Park, Calif., USA). Sensors were rehydrated in 0.2 ml 0.1 M MES, pH 5.0 for 300 sec. Sensors were then activated via incubation with 0.1 ml 0.2 M EDC/0.095 M NHS mixture for 300 sec and subsequently incubated with 0.1 ml antithrombin-solution for 600 sec. Unoccupied amine-reactive sites were quenched by incubating with 1M ethanolamine for 180 sec, and sensors were allowed to reach stable baseline levels via incubation with phosphate-buffered saline supplemented with 0.1% Tween-20 (PBS-T) for 300 sec. Antithrombin-coated sensors were then transferred to wells containing KB-AT-002/003_ABP (100 microgram/ml in PBS-T) and incubated for 600 sec in order to visualize association of KB-AT-002/003_ABP to immobilized antithrombin. […] As is showing in the lower panel of FIG. 4, KB-AT-002/003_ABP bound readily to immobilized antithrombin.

[4] = biological target: T4, murine albumin (murine, UniProt P07724 25-608); test: immunosorbent assay: murine albumin coated at 10 microgram/ml, bound sdAb probed with peroxidase-labeled anti-His tag antibody, corrected for non-coated wells
Description: (§3) Example 1: Binding of KB-AT-002/003_ABP to human and murine albumin in an immunosorbent assay. Binding to albumin may be favorable to increase the size of sdAbs, which are smaller sized than conventional immunoglobulins (15 kDa versus 150 kDa, for a monovalent sdAb and IgG, respectively). A construct was established encoding a bi-paratopic sdAb (KB-AT-002/003) fused to an albumin binding peptide (ABP, with the amino acid sequence […]) resulting in the sdAb designated KB-AT-002/003_ABP (SEQ ID NO: 18). Purified KB-AT-002/003_ABP was tested for binding to both human and murine albumin. Human and murine albumin were immobilized (10 microgram/ml) in 10 mM NaHCO₃, 50 mM Na2CO3 (pH 9.5) in a volume of 50 microliter in microtiter plates (Greiner Bio-One, Les Ulis, France) for 16 h at 4° C. As a negative control, no albumin was immobilized. […]
(§4) Wells were then washed three times with 200 microliter/well using TBS-T. Bound of KB-AT-002/003_ABP was probed with peroxidase-labeled monoclonal anti-His tag antibodies (Abcam, diluted 1/10000) for 2 hours at 37° C. with 50 microliter/well. Wells were then washed three times with 100 microliter/well using TBS-T. Residual peroxidase activity was detected by measuring peroxidase-mediated […] of 3,3′,5,5′-tetramethylbenzidine. […]

[5] = biological target: T5, human albumin (human, UniProt P02768 25-609); test: ELISA, albumin coated at 10 microgram/ml, anti-His tag detection
T5 construct: Coated on microtiter wells at 10 microgram/ml
Description: as §3, §4

[6] = biological target: T4, murine albumin; test: as above
Description: as §3, §4

| Binder | Kd [1] [µM] | Kd [2] [µM] | binding result [3] | binding result [4] | binding result [5] | binding result [6] |
| --- | --- | --- | --- | --- | --- | --- |
| B1 | 0.099 | 0.083 | – | – | – | – |
| B2 | 0.42 | – | binds | binds | – | – |
| B3 | – | – | – | – | no binding (tested: 0-10 microgram/ml) | no binding (tested: 0-10 microgram/ml) |
